Reference: patent US6426070

What was measured:
[1] = target: recombinant human eosinophil cationic protein (rhECP), baculovirus-derived, C-terminal FLAG (human) (UniProt P12724); experiment: cell-based or functional assay
[2] = target: T1, placental ribonuclease inhibitor (RI), P13489
T1 chain: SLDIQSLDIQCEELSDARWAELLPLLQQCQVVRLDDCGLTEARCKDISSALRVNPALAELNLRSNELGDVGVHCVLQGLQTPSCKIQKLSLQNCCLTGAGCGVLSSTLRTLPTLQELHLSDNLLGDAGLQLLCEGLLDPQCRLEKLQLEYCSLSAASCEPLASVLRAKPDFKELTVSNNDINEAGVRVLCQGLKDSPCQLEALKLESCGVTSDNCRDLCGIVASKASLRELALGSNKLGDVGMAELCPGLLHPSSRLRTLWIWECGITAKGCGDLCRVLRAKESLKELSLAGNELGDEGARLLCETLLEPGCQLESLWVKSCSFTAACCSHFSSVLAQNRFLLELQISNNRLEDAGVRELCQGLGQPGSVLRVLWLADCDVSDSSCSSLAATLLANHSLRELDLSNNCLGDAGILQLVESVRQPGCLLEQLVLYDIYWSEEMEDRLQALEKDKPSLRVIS

Molecule	infectious units/ml RSV-B after 500 nM rhECP + 400U RI (500 nM rhECP alone: 660 +/- 28) (infectious units/ml) [1]	ribonuclease activity (pmol/min) at fixed enzyme (rhECP) and substrate (tRNA) concentrations with increasing concentrations of RI [2]
placental ribonuclease inhibitor (RI) (from UniProt P13489 2-461)	1690	
recombinant human eosinophil cationic protein (rhECP), baculovirus-derived, C-terminal FLAG (protein) RPPQFTRAQWFAIQHISLNPPRCTIAMRAINNYRWRCKNQNTFLRTTFANVVNVCGNQSIRCPHNRTLNNCHRSRFRVPLLHCDLINPGAQNISNCTYADRPGRRFYVVACDNRDPRDSPRYPVVPVHLDTTIDYKDDDDK		These results demonstrate that rhECP is sensitive to the inhibitory effects of RI
